We go through five molecules from article PMC4871238 (Nature structural & molecular biology, 2015).

The chains are these.
T1: human SBDS (Shwachman-Bodian-Diamond syndrome protein) (human, UniProt Q9Y3A5 1-250)
T1 sequence: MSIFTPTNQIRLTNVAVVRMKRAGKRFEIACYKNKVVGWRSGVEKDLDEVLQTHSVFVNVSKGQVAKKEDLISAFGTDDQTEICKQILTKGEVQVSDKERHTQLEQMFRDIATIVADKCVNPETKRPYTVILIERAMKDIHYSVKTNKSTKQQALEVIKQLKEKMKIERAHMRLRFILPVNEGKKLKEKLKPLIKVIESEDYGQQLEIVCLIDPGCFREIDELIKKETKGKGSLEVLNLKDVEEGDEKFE

B1: Dictyostelium discoideum ribosomal protein uL14 (L23) (natural protein)
chain: not shown
B2: Dictyostelium discoideum ribosomal protein uL16 (L10) (natural protein, UniProt Q54J69 1-217, looked up)
chain: MGRRPARCYRYCKNKPYIKSRYCRGVPDAKIRIFDLGRKKASTDEFPLCVHLISLEKEQLSSEAIEAGRISCNKYISKTGGKDSFHMRVRVHPWHVLRINKMLSCAGADRLQTGMRGAFGKPMGTVARVNIGQIIFSIRTRDNMLANVVEALRRSSYKFPGRQKIVVSKKWGFTAYNREAYQKLKADGRLMNDGANVKVITNHGTLAQYAKDIAAAN
B3: Dictyostelium discoideum eIF6 (eukaryotic initiation factor 6), endogenous (natural protein)
chain: not shown
B4: Dictyostelium discoideum ribosomal protein uL11 (L12) (natural protein)
chain: not shown
B5: Dictyostelium discoideum ribosomal protein eL24 (L24) (natural protein, UniProt Q54VN6 1-127, looked up)
chain: MKTSLCNYSEFKIYPARGMKFVRGDSKVFHFINTKVESLFFRKINPRDIRWSMVYRRIYKNTTTDVSAKKKARKTKKVERNIVGASLEVIQQKRAQKPEVKQAAAEQAKREIKEKKKAAAKKAAPKK

What all share (assay): cryo-EM structure
Assay [1] addresses B3.
The target of assay [2] is T1, human SBDS (Shwachman-Bodian-Diamond …).
Assay [3] has as its target Dictyostelium discoideum ribosomal protein uL3 (L3) (Dictyostelium discoideum, UniProt P34113 1-398).

Dictyostelium discoideum ribosomal protein uL3 (L3), sequence (P34113 whole entry): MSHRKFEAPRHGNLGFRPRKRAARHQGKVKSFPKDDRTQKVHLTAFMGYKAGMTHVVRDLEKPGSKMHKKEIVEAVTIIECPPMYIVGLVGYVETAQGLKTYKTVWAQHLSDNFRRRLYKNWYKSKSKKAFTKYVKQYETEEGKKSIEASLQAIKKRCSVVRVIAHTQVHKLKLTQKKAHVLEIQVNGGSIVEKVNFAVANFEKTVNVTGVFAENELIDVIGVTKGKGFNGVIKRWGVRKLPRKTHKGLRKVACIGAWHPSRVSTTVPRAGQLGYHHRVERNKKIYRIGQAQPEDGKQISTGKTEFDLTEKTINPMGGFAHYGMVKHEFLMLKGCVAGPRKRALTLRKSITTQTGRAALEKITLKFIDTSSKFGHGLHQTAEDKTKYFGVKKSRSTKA

With B1, the binding result in assay [1] is given as “binds”. In the case of B2, the binding result in assay [2] is “binds”. As for B3, the binding result in assay [3] is on record as “binds”.

Consider B4, for which the binding result in assay [2] is given as “binds”. Regarding B5, the binding result in assay [1] is recorded as “binds”.
